# Results taken from patent publication US20120121633A1 (published 2012).
# T1: ovalbumin (UniProt P01012 2-386)
# T1 construct: also called control ovalbumin
# T1 sequence: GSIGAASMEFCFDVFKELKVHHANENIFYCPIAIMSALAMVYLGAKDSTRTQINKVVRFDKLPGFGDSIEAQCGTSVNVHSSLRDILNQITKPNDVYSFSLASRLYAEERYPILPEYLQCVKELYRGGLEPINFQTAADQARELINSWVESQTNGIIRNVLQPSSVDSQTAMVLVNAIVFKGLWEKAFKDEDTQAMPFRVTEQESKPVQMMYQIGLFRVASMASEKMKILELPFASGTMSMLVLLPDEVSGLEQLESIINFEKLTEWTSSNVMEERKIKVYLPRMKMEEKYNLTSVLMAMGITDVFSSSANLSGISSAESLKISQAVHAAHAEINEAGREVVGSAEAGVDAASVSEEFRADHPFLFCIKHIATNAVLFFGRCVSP
# Target: T1, ovalbumin
# Test: competition ELISA: no inhibition of MAb 2G9 binding to immobilized BSA-E-416-433
binder,measurement,value
"IgM clone 2G9 (antibody, V domains shown, also called MAb 2G9; MAb IgM 2G9) VH: QVQLKQSGPGLVQPSQSLSITCTVSGFSLTSYGVHWVRQSPGKGLEWLGVIWSGGSTDYNAAFISRLSISKDNSKSQVFFKMNSLQANDTAIYYCARNKDYGSSYDYYAMDYWGQGTSVTVSS VL: DIQMTQTTSSLSASLGDRVTISCRASQDISNYLNWYQQKPDGTVKLLIYYTSRLHSGVPSRFSGSGSGTDYSLTISNLEQEDIATYFCQQGNTLPTFGGGTKLEIKR",binding result,no binding
